Measured values taken from patent US20090011981A1, “Novel Inhibitors of Angiogenesis” (K.U. LEUVEN RESEARCH & DEVELOPMENT, priority 2004, published 2009).
Numbering of substitutions follows the chain as printed. Where “and” joins values, the source holds several entries; their conditions need not be identical. Equal values may be shown once.

B1: PF4: Platelet Factor 4, CXC chemokine; authentic natural human PF4 purified from platelets as comparator (protein)
chain: EAEEDGDLQCLCVKTTSQVRPRHITSLEVIKAGPHCPTAQLIATLKNGRKICLDLQAPLYKKIIKKLLES
B2: PF4var1: natural and recombinant versions of the human natural variant of the PF4 protein; 70 amino acid mature form, SEQ ID NO: 1 (protein, listed as Homo sapiens)
chain: B1 chain with P58L, K66E, L67H
modifications: mat_peptide (1)..(70) PFvar1

How the values were obtained:
[1] = system: bFGF-induced angiogenesis (rat cornea neovascularization); assay: Rat corneal micropocket assay for angiogenesis; assay type: in vivo
Procedure: In vivo angiogenesis was assessed using the rat cornea micropocket assay as previously described [Addison et al. cited above]. Briefly, reagents were diluted in PBS plus 0.25% serum albumin to their final concentration per pellet of Hydron casting solution (Hydro Med Sciences, New Brunswick N.J.). 5 μl aliquots were pipetted onto the flat surface of a sterile polypropylene specimen container and were allowed to polymerize overnight under UV light in a laminar flow hood. Prior to implantation, the pellets were rehydrated with normal saline. Animals were given 150 mg/kg ketamine and 250 μg/kg atropine, and the corneas were anesthetized with 0.5% proparacaine hydrochloride ophthalmic solution followed by implantation of the Hydron pellet into an intracorneal pocket (1-2 mm from the limbus). Six days after implantation, animals received heparin (1000 U) and ketamine (150 mg/kg) i.p. 30 min prior to sacrifice, followed by perfusion with 10 ml of colloidal carbon via the left ventricle. Corneas were then harvested and photographed. […] Sustained directional ingrowth of capillary sprouts and hairpin loops toward the implant were considered positive neovascularization responses.

[2] = Heparin-Sepharose affinity chromatography (heparin affinity); assay type: binding; details: for salt concentration at elution from heparin-Sepharose column: linear NaCl gradient 0.05-2 M, pH 7.4
Procedure: For large scale PF4 production, outdated platelets (Red Cross blood transfusion centre, Belgium) were stimulated with 1 U/ml thrombin (Sigma, St. Louis, Mo.) for 2 h at 37° C. in PBS. The conditioned medium was subsequently purified by a purification procedure previously described [Struyf et al (2003), cited above, Van Damme et al. (1992) J Exp Med 176, 59-65; Struyf et al. (2000) in Balkwill, F. ed. Cytokine molecular biology, a practical approach. Oxford, UK, Oxford University Press, pp 73-88]. The conditioned media (1 to 5 liters) were first concentrated and partially purified by adsorption to silica (“Silica Matrex”; pore size 100 A, particle size 35-70 μm; Millipore, Billerica, Mass.; 10 g/l conditioned medium). After 2 h of magnetical stirring at 4° C., the silicic acid was sedimented by centrifugation and subsequently washed once with PBS and once with PBS containing 1 M NaCl pH 7.4. Elution of proteins from the silica matrix was done by magnetically stirring three consecutive times with 100 ml of PBS containing 1.4 M NaCl and 50% ethylene glycol pH 7.4 during 30 min at 4° C. A second elution with 0.3 M glycine/HCl pH 2.0 buffer (2×100 ml) was performed to improve recovery of chemokines. Subsequently, the pooled eluates (500 ml) were dialyzed against equilibration/loading buffer (50 mM Tris/HCl-50 mM NaCl, pH 7.4) before fractionation by heparin-Sepharose chromatography (Amersham Pharmacia Biotech, Uppsala, Sweden). Proteins were eluted from the column in a linear NaCl gradient (0.05-2 M NaCl in the loading buffer; 5 ml-fractions). For all fractions, the protein concentration was determined by a Coomassie blue G-250 binding assay using the Bio-Rad commercial kit (Bio-Rad Laboratories, Hercules, Calif.). […] Purified fractions were analyzed by SDS-PAGE under reducing conditions to determine purity. […]

[3] = system: Human lung microvascular endothelial cells (HMVEC-L); assay: Endothelial cell chemotaxis assay (bFGF- or CXCL8-induced HMVEC migration); assay type: cell-based; details: for inhibition of CXCL8-induced HMVEC chemotaxis: CXCL8 80 ng/ml; for inhibition of the migration of the cells: at a concentration of 50 ng/ml; for inhibition of bFGF-induced HMVEC chemotaxis: bFGF 50 ng/ml; for migration of HMVEC toward bFGF or CXCL8 (FIG. 4 Panel C): test protein 50 ng/ml, bFGF 50 ng/ml or CXCL8 80 ng/ml
Procedure: Human lung microvascular endothelial cells (HMVEC-L) were obtained from Clonetics (Walkersville, Md.), and were cultured following the manufacturer's instructions in EBM-2 medium supplemented with the EGM-2-MV “bulletkit” containing FCS, ascorbic acid, hydrocortisone, fibroblast growth factor (FGF), vascular endothelial growth factor (VEGF), insulin-like growth factor I (IGF-I) and epidermal growth factor (EGF). Endothelial cell chemotaxis assays were performed as previously described [Addison et al. (2002) J Immunol 165, 5269-5277]. Cells were harvested by trypsinization, resuspended in EBM-2 medium without growth factors with 2% FCS added. An aliquot of 160 μl containing 5×10^5 cells/ml was added to each of the lower wells of a 12-well chemotaxis chamber (Neuro Probe Inc., Cabin John Md.). The chambers were assembled (by placing 0.1% gelatin coated 5 μm pore size filters over the lower wells, followed by a gasket and the upper chamber) and incubated at 37° C. in a CO2 incubator for 2 h in an inverted position. The chambers were then turned upright, and 100 μl aliquots of sample dilutions were added to the upper wells of the chamber. As endothelial cell chemoattractants CXCL8 and bFGF (both from Peprotech) were used. The chambers were placed in a 37° C. CO2 incubator for 2 h at which time the filters were removed, and subjected to Diff-Quik staining. The total number of migrated cells was counted in 15 separate fields of view under 400× power.

murine melanoma cells = details: systemic treatment, mice injected i.v. with murine melanoma cells; cited from earlier work
B16 melanoma tumors = assay: Intratumoral injection of B16 melanoma tumors; assay type: in vivo, athymic nu/nu mice; details: 1 μg recombinant human PF4var1, 6 intratumoral injections over 2 weeks, B16 melanoma in nu/nu mice
Procedure: Animal experiments were approved by the local animal ethics committee (University of Leuven), and conducted in conformity with the Belgian and European guidelines for the protection of animals used for scientific purposes. Experiments were performed with 6 to 8 weeks old female athymic nu/nu mice (NMRI background) kept in a specific pathogen-free environment (Elevage Janvier, Le Genest Saint Isle, France). Two consecutive experiments were performed, the first comprising 20 mice, the second 18 mice. B16 melanoma cells in log phase (2×10^6 cells resuspended in 200 μl of PBS) were injected subcutaneously on day 1 in the right dorsal flank. Animals were injected at the tumor site with 50 μl of test sample, i.e. endotoxin-free saline (0.9% NaCl, Baxter, Lessines, Belgium), 5 pg of natural human PF4 or 1 μg of recombinant human PF4var1 in saline. Treatment started on day 3, in total 6 intratumoral injections were administered three times a week over a period of 2 weeks. All animals were observed three times a week, the tumor dimensions were measured with calipers and tumor size was calculated (tumor volume=4/3Πab^2; a is the smallest diameter/2 and b is the largest diameter/2 in millimeters). At the end of the experiments tumor size was calculated more precisely after dissection of the tumor using the formula 4/3Πabc (a, b and c width/2, length/2 and depth/2, respectively). […]

[4] = 50 ng of the cytokine alone, six days after implantation
[5] = 50 ng combined with bFGF (50 ng)

Molecule	No of neg pellets (no neovascularization / total pellets implanted) [1, 4]	No of pos pellets (angiogenic response / total pellets implanted) [1, 4]	salt concentration at elution from heparin-Sepharose column [2]	inhibition of CXCL8-induced HMVEC chemotaxis ([3]; test protein 300 ng/ml)	inhibition of the migration of the cells [3]	inhibition of migration of HMVEC ([3]; at concentrations as high as 300 ng/ml, toward bFGF or CXCL8)	inhibition of bFGF-induced HMVEC chemotaxis ([3]; test protein 300 ng/ml)	migration of HMVEC toward bFGF or CXCL8 (FIG. 4 Panel C) [3]	dose for optimal inhibition of metastases or lung weight (murine melanoma cells)	% inhibition of bFGF-induced angiogenesis [1, 5]	No of neg pellets (no neovascularization / total pellets implanted) [1, 5]	No of pos pellets (angiogenic response / total pellets implanted) [1, 5]	tumor growth (B16 melanoma tumors)	heparin binding affinity compared with PF4 ([2]; based on elution at lower salt concentrations from heparin-Sepharose)	inhibition of CXCL8-induced HMVEC chemotaxis ([3]; test protein 10-100 ng/ml)	potency on angiogenesis relative to PF4 ([3]; PF4var1 versus PF4)	inhibition of bFGF-induced HMVEC chemotaxis ([3]; test protein 10-100 ng/ml)	concentration giving an inhibition of 50% of the migration of HMVEC ([3]; chemotaxis of HMVEC toward bFGF or CXCL8)
bFGF: Fibroblast growth factor used as endothelial cell chemoattractant and angiogenesis inducer (Peprotech) [reference compound]	0/25	25/25																
B1	17/22	5/22	1.6-1.8 M NaCl	failed to inhibit	~80%	practically no inhibition	failed to inhibit	reduce migration	> 5 mg PF4 per kg of body weight	23%	5 of 22 and 5/22	17/22						
B2	21/22	1/22	1-1.4 M NaCl		~100%			reduce migration		73%	16 of 22 and 16/22	6/22	capable of reducing tumor growth	lower affinity than PF4	completely blocked	100 fold	completely blocked	around 2.5 ng/ml
